Read-outs that look alike come from different tables or passages of the source. Ends that are not written are not given here. * marks the point of attachment. Dansyl = CN(C)c1cccc2c(S(=O)(=O)*)cccc12
Columns and labels:
bBACH1-P phosphopeptide [1] = target: T1, bBACH1-P phosphopeptide (Homo sapiens, UniProt Q9BX63, also: phosphoserine (position not given here), biotin (position not given here)); assay: SPR steady-state
T1 chain: SRSTSPTFNK

bBACH1-P phosphopeptide [2] = target: T1, bBACH1-P phosphopeptide; assay: ITC
[3] = target: T2, CtIP phosphopeptide phosphopeptide (Homo sapiens, UniProt Q99708, also: phosphoserine (position not given here)); assay: SPR
T2 chain: PTRVSSPVFGAT

BACH1-P phosphopeptide [4] = target: T3, BACH1-P phosphopeptide (Homo sapiens, UniProt Q9BX63, also: phosphoserine (position not given here)); assay: ITC
T3 chain: SRSTSPTFNK

bBACH1-P phosphopeptide [5] = target: T1, bBACH1-P phosphopeptide; assay: SPR steady-state
bBACH1-P phosphopeptide [6] = target: T1, bBACH1-P phosphopeptide; assay: SPR steady-state
bBACH1-P phosphopeptide [7] = target: T1, bBACH1-P phosphopeptide; assay: SPR kinetics
dBACH1-P phosphopeptide [8] = target: T4, dBACH1-P phosphopeptide (Homo sapiens, UniProt Q9BX63, also: phosphoserine (position not given here)); assay: stopped-flow fluorescence
T4 chain: Dansyl-SRSTSPTFNK

BACH1-P phosphopeptide [9] = target: T3, BACH1-P phosphopeptide; assay: ITC
bBACH1-P phosphopeptide [10] = target: T1, bBACH1-P phosphopeptide; assay: SPR steady-state
BACH1-P phosphopeptide [11] = target: T3, BACH1-P phosphopeptide; assay: ITC
BACH1-P phosphopeptide [12] = target: T3, BACH1-P phosphopeptide; assay: ITC
BACH1-P phosphopeptide [13] = target: T3, BACH1-P phosphopeptide; assay: ITC
dBACH1-P phosphopeptide [14] = target: T4, dBACH1-P phosphopeptide; assay: stopped-flow fluorescence
bBACH1-P phosphopeptide [15] = target: T1, bBACH1-P phosphopeptide; assay: SPR kinetics
dBACH1-P phosphopeptide [16] = target: T4, dBACH1-P phosphopeptide; assay: fluorescence anisotropy

B1: BRCA1-BRCT 1646-1859 (protein)
chain: VNKRMSMVVSGLTPEEFMLVYKFARKHHITLTNLITEETTHVVMKTDAEFVCERTLKYFLGIAGGKWVVSYFWVTQSIKERKMLNEHDFEVRGDVVNGRNHQGPKRARESQDRKIFRGLEICCYGPFTNMPTDQLEWMVQLCGASVVKELSSFTLGTGVHPIVVVQPDAWTEDNGFHAIGQMCEAPVVTREWVLDSVALYQCQELDTYLIPQIP
- Kd (bBACH1-P phosphopeptide [1]): 530 nM
- Kd (bBACH1-P phosphopeptide [2]): 230 nM
- Kd [3]: 1300 nM
- Kd (BACH1-P phosphopeptide [4]): 330 nM
- Kd (bBACH1-P phosphopeptide [5]): 350 nM
- Kd (bBACH1-P phosphopeptide [6]): 260 nM
- Kd (bBACH1-P phosphopeptide [7]): 90 nM
- Kd (dBACH1-P phosphopeptide [8]): 200 nM
- Kd (BACH1-P phosphopeptide [9]): 490 nM
- Kd (bBACH1-P phosphopeptide [10]): 560 nM
- Kd (BACH1-P phosphopeptide [11]): 280 nM
- Kd (BACH1-P phosphopeptide [12]): 500 nM
- Kd (BACH1-P phosphopeptide [13]): 410 nM
- Kd (dBACH1-P phosphopeptide [14]): 110 nM
- Kd (bBACH1-P phosphopeptide [15]): 430 nM
- Kd (dBACH1-P phosphopeptide [16]): 180 nM

— publication PMC2574583 (2008)
